B1: Z006 (MEX105_42) (antibody, V domains shown)
VH: EVQLLESGGGLVQPGGSLRLSCAASGFTFKNYAMAWVRQAPGKGLEWVSLLYNSEESTYYADSVKGRFTISRDNSKNTLFLQMNRLRVEDTAVYFCVRDRSNGWSSINLWGRGTLVTVSS
VL: DIQMTQSPSTLSASVGDRVTMTCRASQTISGWLAWYQQKPGKAPKLLIYQASRLESGIPSRFSGSGSGTEFTLTISSLQPDDVATYYCQQYSTFWTFGLGTKVEIK
B2: Z010 (MEX105_88) (antibody, V domains shown)
VH: EVQLLESGGGLVQPGGSLRLSCAASGFTFSNYAMAWVRQAPGKGLEWVSLIYSGDDSTYYADFVKGRFTISRHNSKNTLSLQMNSLRAEDTAIYYCVKDRGTGWSSIVHWGQGTLVTVSS
VL: DIQMTQSPSTLSASVGDRVTITCRASQTISNWLAWYQQKPGKAPKLLIYQASSLESGVPSRFSGSGSGTEFTLTISSLQPDDFATYYCQQYSTYWTFGQGTKVEIK
B3: Z032 (BRA112_24) (antibody, V domains shown)
VH: EVQLLESGGRLVQPGGSLTLSCAASGFPFSTYAMSWLRQAPGKGLEWVSGITGDSGSTYYAASVKGRFTISRDNSKNTLYLQMNSLTADDTAVYYCAKDRLHSGLGELFSYWGQGTLVTVSS
VL: DIQMTQSPSTLSASVGDRVNITCRASQSINQWLAWYQQKPGKAPKFLMYKASTLETGVPSRFSGSGSGTEFTLTISSLQPDDFATYYCQHYFSYPWTFGQGTKVEIK
B4: Z035 (BRA112_71) (antibody, V domains shown)
VH: EVQLLESGGGLIQPGGSLRLSCAASGFTFSSYAMSWVRQAPGKGLEWVSGISGSGGASDNGASRYYADSVKGRFSISRDNSKNTVYLQMNSLRAEDTAVYYCAKDRLSGGFGELFQKWGQGTLVTVSS
VL: DIQMTQSPSTLAASVGDRVTITCRASQNINSWLAWYQQKPGKAPKFLIYKASTLESGAPSRFSGSGSGTEFTLTISSLQPDDFATYYCQHYYSYPYTFGQGTKVEIK
B5: Z004 (MEX18_89) (antibody, V domains shown)
VH: EVQLLESGGGLVQPGGSLRLTCATSGFTFRDYAMSWVRQAPGKGLEWVSSYSGIDDSTYYADSVKGRFTISRDNSKSTLSLHMNSLRAEDSALYFCAKDRGPRGVGELFDSWGQGTLVTVSS
VL: DIQMTQSPSTLSASVGDRVTITCRASQSISKWLAWYQQKPGKAPKLLIYTTSTLKSGVPSRFSGSGSGTEFTLTISSLQPDDFATYYCQHFYSVPWTFGQGTKVEIK
notes: also called biotin-Z004 (biotinylated form)
B6: Z001 (MEX18_21) (antibody, V domains shown)
VH: EVQLLESGGGLVQPGGSRRLSCATSGFSFDTYAMSWLRQAPGKGLEWVSSFSGLDDSTYYADSVKGRFTISRDNSKNTLYLQMNSLRAEDTAIYYCAKDRGPRGIGELFDFWGQGTLVTVSS
VL: DIQMTQSPSTLSASVGDRVTITCRASQSISRWLAWYQQKPGKAPKLLIYKTSTLKSEVPSRFSGSGSGTEFTLTISSLQPDDFATYYCQHFHSVPWTFGQGTKVEIK
B7: Z028 (MEX84_p4-53) (antibody, V domains shown)
VH: EVQLLESGGGLVQPGGSLRLSCAASGFTFSAYAMSWVRQAPGKGLEWVSSINGHSDSTYFADSVKGRFTISRDNSKNTLYLQMNSLRAEDTALYYCAKDRLREGIGELFHSWGQGTLVTVSS
VL: DIQMTQSPSTLSASIGDRVTITCRASQSITPWLAWYQQKPGKAPKFLIYQTSILESGVPSRFSGSGSGTEFTLTISSLQPDDFATYYCQHYHSYPWTFGQGTKVEIK
B8: Z038 (BRA12_2) (antibody, V domains shown)
VH: EVQLLESGGGLVQPGGSLRLSCEASGFTFSNYAMNWVRQAPGKGLEWVSTLGATDNSGDSTYYVESAKGRFTISRDNSKNTLYLQMNSLRVEDTAVYFCAKDRTGNIGAGTGYFDKWGQGTLVTVSS
VL: DIQMTQSPSTLSASVGDRVTITCRASHRISGWLAWYQQKPGKAPKLLIYQASGLESGVPSRFSGSGYGTEFTLTISSLQADDFATYYCQQYNNYPWTFGQGTKVEIK
notes: also called BRA12_02
B9: Z031 (BRA112_46) (antibody, V domains shown)
VH: EVQLLESGGGLVQPGGSLRLSCVASGFTFGSYGMAWVRQAPGKGLEWISSISSIDPSTYYADSVKGRFTVSRDNSENTLYLHMSSLKVEDTAVYFCAKDRLNGGFGELFASWGQGTLVTVSS
VL: DIQMTQSPSTLSASVGDSVTITCRASQSISSWLAWYQQKPGKAPKFLIHKASSLESGIPSRFSGSGSGTEFTLTINNLQPDDFATYYCQHYHSYPWTFGQGTKVEIK
B10: Z021 (MEX84_p4-23) (antibody, V domains shown)
VH: QVQLQESGPGLVKPSETLSLTCTVSGGSIDTYYWSWIRQTPGKGLEWIGCFYYSVDNHFNPSLESRVTISVDTSKNQFSLKMTSMTASDTAVYYCARNQPGGRAFDYWGPGTLVTVSS
VL: EIVLTQSPATLSLSPGQRATLSCRASQSVSNYFAWYQQKPGQAPRLLIYDTSKRATGTPARFSGSGSGTDFTLTISSLEPEDFAVYYCQERNNWPLTWTFGLGTKVEIK
B11: Z054 (BRA138_94) (antibody, V domains shown)
VH: QLQLQESGPRLVKPSETLFLTCTVSGDSISSSSYFWGWIRQPPGKGLEWIGSISYSGSTYYNPSLKSRVTISVDTSKNQFSLKLSSVTAADTVVYYCAKHLYSSSWNIGSSFDSWGPGTLVTVSS
VL: EIVLTQSPATLSLSPGERATLSCRASQSVSIYLAWYQQKPGQAPRLLIYDASSRATGIPARFSGSGSGTDFTLTISSLEPEDFAVYYCQQRSNWPVYTFGQGTKVEIK
B12: Z044 (BRA138_46) (antibody, V domains shown)
VH: QVQLVQSGAEVKKPGASVKVSCKASGYTFTSTYIHWVRQAPGQGLEWMGIINPSSSNTNYAQKFQGRVTMTRDTSTSTVYMELSSLRSEDTAVYYCARDFGGYSSSSVSDAFDIWGQGTMVTVSS
VL: QSALTQPASVSGSPGQSITISCTGTSSDVGSFNLVSWYQQHPGKAPKLIIYEVSKRPSGVSNRFSGSKSGNTASLTISGLQAEDEVHYYCCSYAGSSRFVFGTGTKVTVL
B13: Z040 (BRA12_81) (antibody, V domains shown)
VH: EVQLLESGGGLVQPGGSLRLSCAASGFTFSTYAMSWVRQAPGKGLEWVSAISGSGRSTYYADSVKGRFTISRDNSKNTLYLQMNSLRGEDTAVYYCAKSSGGHNWNYVDYYYGMDVWGQGTTVTVSS
VL: DIQLTQSPSFLSASVGDRVTITCRASQGISSYLAWYQQKPGKAPKLLIYAASTLQSGVPSRFSGSGSGTEFTLTISSLQPEDFATYYCQQLNSYPVTFGPGTKVDIK

Legend:
[1] = target: DENV3 EDIII, polyhistidine-AviTag (DENV3); test: cross-reactivity ELISA
[2] = target: T1, ZIKV E Domain III ([..]), polyhistidine-AviTag, produced in HEK-293-6E cells (ZIKV); test: ELISA on coated ZIKV EDIII
T1 construct: also called ZEDIII; ZIKV EDIII

[3] = target: ZIKV E protein (2015 Puerto Rican PRVABC59 strain) on virus (ZIKV, strain PRVABC59); test: cell-based or functional assay
[4] = target: DENV1 E protein (strain PUO-359) on RVPs or on virus (DENV1, strain PUO-359); test: cell-based or functional assay
[5] = target: T2, DENV1 EDIII, polyhistidine-AviTag, produced in HEK-293-6E cells (DENV1); test: cross-reactivity ELISA
T2 construct: also called EDIII of DENV1
T2 sequence (P17763 577-674, tags left off): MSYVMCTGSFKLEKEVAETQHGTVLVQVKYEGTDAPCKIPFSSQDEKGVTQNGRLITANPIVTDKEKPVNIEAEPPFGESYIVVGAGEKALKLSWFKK

Binder	binding result [1]	EC50 [2] [µg/mL]	further results
B1	no binding (tested: 10 µg/ml)	–	–
B2	no binding (tested: 10 µg/ml)	–	–
B3	–	0.0195	–
B4	no binding (tested: 10 µg/ml)	–	–
B5	no binding (tested: 10 µg/ml)	–	IC50, plaque reduction neutralization test (PRNT) [3]: 2.2 ng/mL; IC50, DENV1 luciferase RVPs [4]: 1.6 ng/mL; IC50, flow cytometry with authentic DENV1 [4]: 16.4 ng/mL
B6	no binding (tested: 10 µg/ml)	–	–
B7	no binding (tested: 10 µg/ml)	–	–
B8	no binding (tested: 10 µg/ml)	–	–
B9	no binding (tested: 10 µg/ml)	–	–
B10	–	–	IC50, plaque reduction neutralization (PRNT) [3]: 4 ng/mL; IC50, DENV1 neutralization (flow cytometry) [4]: 10.1 ng/mL
B11	–	> 10	binding result [5]: no binding (tested: 10 µg/ml)
B12	–	> 10	binding result [5]: no binding (tested: 10 µg/ml)
B13	–	> 10	binding result [5]: no binding (tested: 10 µg/ml)

— patent US20200147199A1 (ROCKEFELLER UNIVERSITY, published 2020)
